Measurements published in patent publication US20220143204A1.

How the values were obtained:
[1] = biological target: recombinant human extracellular domain of IGF2R (human) (UniProt P11717); experiment: titration ELISA of the Alexa Fluor 647 conjugate on recombinant hIGF2R-ECD, one-site specific binding fit
[2] = biological target: recombinant human extracellular domain of IGF2R (human) (UniProt P11717); experiment: titration ELISA on recombinant hIGF2R-ECD, direct read-out of the Alexa Fluor 647 conjugate (fluorescence intensity 700 nm), one-site specific binding fit (Examples 4.1, 6.1)
[3] = biological target: recombinant human extracellular domain of IGF2R (human) (UniProt P11717); experiment: binding assay on plates coated with hIGF2R-ECD, three-fold VHH dilutions, bound VHH detected with anti-VHH antibody (Example 4.1); y axis OD415
[4] = biological target: recombinant human extracellular domain of IGF2R (human) (UniProt P11717); experiment: binding assay on hIGF2R-ECD coated plates, detection with anti-VHH antibody
[5] = biological target: recombinant human extracellular domain of IGF2R (human) (UniProt P11717); experiment: titration ELISA on hIGF2R-ECD, direct read out at 647 nm, one-site specific binding fit
rat IGF2R on cells (rat) = experiment: cell-based or functional assay
[6] = biological target: human IGF2R on cells (human) (UniProt P11717); experiment: cell-based or functional assay
[7] = biological target: recombinant human extracellular domain of IGF2R (human) (UniProt P11717); experiment: competition ELISA on human IGF2R ectodomain: 250 nM unlabelled 13E8 against 10 nM labelled 13F11 (competitor: 13F11-A647)

Kd [1] | Bmax [2] | EC50 (read off the curve) [3] | Binder | further results
2.5 nM | 79.2 |  | 13F11-13E8 conjugated to Alexa Fluor 647 (VHH, not shown: small tags and cut ends, Alexa Fluor 647 by maleimide chemistry on the C-terminal free cysteine) EVQLVESGGRLVQPGDSLRLSCAASGRTFSDNAMGWFRQAPGKERRFVAGISWAGGSTYYSDSVKGRFTISRDNAKNTVYLQMNSLKPEDTAVYYCAAGLRAWVQRMPKDYNYWGQGTQVTVSSGGGGSGGGGSGGGGSEVQLVESGGGLVQAGGSLRLSCAASRSISPMGWYRQAPGKQRELVAIMPSSGPPIYADSVQGRFTISRDNAKNTVYLQMNSLKPEDTAVYYCNVGGGYWGQGTQVTVSS | 
 |  | 0.4 nM | 13F11 (VHH) VHH: EVQLVESGGRLVQPGDSLRLSCAASGRTFSDNAMGWFRQAPGKERRFVAGISWAGGSTYYSDSVKGRFTISRDNAKNTVYLQMNSLKPEDTAVYYCAAGLRAWVQRMPKDYNYWGQGTQVTVSS | Kd [4]: 0.23 nM
 | 20.1 |  | 13F11 conjugated to Alexa Fluor 647 (VHH, not shown: small tags and cut ends, Alexa Fluor 647 by maleimide chemistry on the C-terminal free cysteine) VHH: EVQLVESGGRLVQPGDSLRLSCAASGRTFSDNAMGWFRQAPGKERRFVAGISWAGGSTYYSDSVKGRFTISRDNAKNTVYLQMNSLKPEDTAVYYCAAGLRAWVQRMPKDYNYWGQGTQVTVSS | Kd [5]: 1 nM
 |  |  | 13E8-13F11 conjugated to IRD800CW (VHH, not shown: small tags and cut ends, IRD800CW by maleimide chemistry on the C-terminal free cysteine) EVQLVESGGGLVQAGGSLRLSCAASRSISPMGWYRQAPGKQRELVAIMPSSGPPIYADSVQGRFTISRDNAKNTVYLQMNSLKPEDTAVYYCNVGGGYWGQGTQVTVSSGGGGSGGGGSGGGGSEVQLVESGGRLVQPGDSLRLSCAASGRTFSDNAMGWFRQAPGKERRFVAGISWAGGSTYYSDSVKGRFTISRDNAKNTVYLQMNSLKPEDTAVYYCAAGLRAWVQRMPKDYNYWGQGTQVTVSS | endocytic rate constant, ke (rat IGF2R on cells (rat)): 0.7 min⁻¹; endocytic rate constant, ke [6]: 1.5 min⁻¹
2.5 nM | 94.7 |  | 13E8-13F11 conjugated to Alexa Fluor 647 (VHH, not shown: small tags and cut ends, Alexa Fluor 647 by maleimide chemistry on the C-terminal free cysteine) EVQLVESGGGLVQAGGSLRLSCAASRSISPMGWYRQAPGKQRELVAIMPSSGPPIYADSVQGRFTISRDNAKNTVYLQMNSLKPEDTAVYYCNVGGGYWGQGTQVTVSSGGGGSGGGGSGGGGSEVQLVESGGRLVQPGDSLRLSCAASGRTFSDNAMGWFRQAPGKERRFVAGISWAGGSTYYSDSVKGRFTISRDNAKNTVYLQMNSLKPEDTAVYYCAAGLRAWVQRMPKDYNYWGQGTQVTVSS | 
 |  |  | 13E8 (VHH) VHH: EVQLVESGGGLVQAGGSLRLSCAASRSISPMGWYRQAPGKQRELVAIMPSSGPPIYADSVQGRFTISRDNAKNTVYLQMNSLKPEDTAVYYCNVGGGYWGQGTQVTVSS | decrease of the fluorescence intensity of labelled 13F11 [7]: < 5%
 |  | 3 nM | 13C11 (VHH) VHH: EVQLVESGGGLVQAGGSLRLSCAASGLTFSSYTMAWYRQAPGKEREVVAAISSGDSIYHEGSVQGRFIISRDNAKNTVYLQMNSLKAEDTAVYYCRANGPGTYWGQGTQVTVSS | 
 |  | 2 nM | 13G10 (VHH) VHH: EVQLVESGGGLVQAGGSLRLSCAASGLTFSSYTMAWYRQAPGKEREVVAAISSGDSIYHEDSVQGRFIISRDNAKNTVYLQMNSLKAEDTAVYYCRANGPGTYWGQGTQVTVSS | 
3.1 nM | 63.4 |  | 13F11-13F11 conjugated to Alexa Fluor 647 (VHH, part only; not given: C-terminal cysteine and His tag, not shown: small tags and cut ends, Alexa Fluor 647 by maleimide chemistry on the C-terminal free cysteine) chain, part: EVQLVESGGRLVQPGDSLRLSCAASGRTFSDNAMGWFRQAPGKERRFVAGISWAGGSTYYSDSVKGRFTISRDNAKNTVYLQMNSLKPEDTAVYYCAAGLRAWVQRMPKDYNYWGQGTQVTVSSGGGGSGGGGSGGGGSEVQLVESGGRLVQPGDSLRLSCAASGRTFSDNAMGWFRQAPGKERRFVAGISWAGGSTYYSDSVKGRFTISRDNAKNTVYLQMNSLKPEDTAVYYCAAGLRAWVQRMPKDYNYWGQGTQVTVSS | 
